The text below walks through data of publication PMC12152899, “Disulfide-mediated tetramerization of TRAP1 fosters its antioxidant and pro-neoplastic activities” (Redox Biology, 2025).

Numbering of substitutions follows the chain as printed. Names may count otherwise.

B1: recombinant human TRAP1 wild type, lacking the mitochondrial import sequence (natural protein, UniProt Q12931 60-704, looked up)
chain: STQTAEDKEEPLHSIISSTESVQGSTSKHEFQAETKKLLDIVARSLYSEKEVFIRELISNASDALEKLRHKLVSDGQALPEMEIHLQTNAEKGTITIQDTGIGMTQEELVSNLGTIARSGSKAFLDALQNQAEASSKIIGQFGVGFYSAFMVADRVEVYSRSAAPGSLGYQWLSDGSGVFEIAEASGVRTGTKIIIHLKSDCKEFSSEARVRDVVTKYSNFVSFPLYLNGRRMNTLQAIWMMDPKDVREWQHEEFYRYVAQAHDKPRYTLHYKTDAPLNIRSIFYVPDMKPSMFDVSRELGSSVALYSRKVLIQTKATDILPKWLRFIRGVVDSEDIPLNLSRELLQESALIRKLRDVLQQRLIKFFIDQSKKDAEKYAKFFEDYGLFMREGIVTATEQEVKEDIAKLLRYESSALPSGQLTSLSEYASRMRAGTRNIYYLCAPNRHLAEHSPYYEAMKKKDTEVLFCFEQFDELTLLHLREFDKKKLISVETDIVVDHYKEEKFEDRSPAAECLSEKETEELMAWMRNVLGSRVTNVKVTLRLDTHPAMVTVLEMGAARHFLRMQQLAKTQEERAQLLQPTLEINPRHALIKKLNQLRASEPGLAQLLVDQIYENAMIAAGLVDDPRAMVGRLNELLVKALERH
notes: Cloned in pET-26b(+); Dimer by gel filtration with DTT; an additional tetramer peak after H2O2; also called WT TRAP1; TRAP1 WT; source: E. coli BL21(DE3), purified (Ni-NTA)
B2: recombinant human TRAP1 C501S (natural protein, UniProt Q12931 60-704, looked up)
chain: B1 chain with C442S
notes: Cloned in pET-26b(+); same construct as m1 with the mutation; source: E. coli BL21(DE3), purified (Ni-NTA)
B3: recombinant human TRAP1 C573R (natural protein, UniProt Q12931 60-704, looked up)
chain: B1 chain with C514R
notes: as for B2
B4: recombinant human TRAP1 C261S (natural protein, UniProt Q12931 60-704, looked up)
chain: B1 chain with C202S
notes: as for B2
B5: recombinant human TRAP1 C527A (natural protein, UniProt Q12931 60-704, looked up)
chain: B1 chain with C468A
notes: as for B2
B6: recombinant human TRAP1 C501S/C527A double mutant (natural protein, UniProt Q12931 60-704, looked up)
chain: B1 chain with C442S, C468A
notes: Cloned in pET-26b(+); same construct as m1 with the mutations; source: E. coli BL21(DE3), purified (Ni-NTA)

The first data set concerns the molecule itself. Nature of the data set: SEC; Superdex 200 HR 10/30, 20 mM TRIS, 150 mM NaCl, pH 7; recombinant TRAP1 incubated with 100 μM H2O2; additional peak beside the dimer; dimers to tetramer. On the technique in general: In gel filtration, larger molecules generally elute earlier.
B1: the stoichiometry N (as a rule, the number of molecules, sites or subunits per partner or assembly) came out at 4.

The next data set deals with the molecule itself. As to the kind of experiment: non-reducing SDS-PAGE; purified recombinant TRAP1, DTT removed, 150 mM NaCl, 50 mM TRIS, pH 7.5, 37 °C, 100 μM H2O2 for 30 min (1 nM to 100 μM in Fig. 1B); disulfide-linked band above 170 kDa; Coomassie or stain-free.
With B2, the binding result was “binds”.
As for B3, the binding result is listed as “binds”.
Turning to B4, the binding result is reported as “binds”.
For the protein B5, the binding result was “binds”.
Still for that read-out and setting: the same measure for B6: “binds”.
